Source: article PMC8617193

Target: NFS1 as crystallised in the (NIAU2)2 complexes (human)
Test: crystal structure; (NIAU2)2 complexes with wild-type or mutant ISCU2, 16-18 mg/ml, sitting drop, 0.1 M MES pH 6.5, 22.5% PEG-400, 15 °C; space group P41212; 1.57-1.95 Å

stoichiometry N: 2
Substance: NFS1 as crystallised in the (NIAU2)2 complexes (enzyme)
